Where no end group is shown, it is not given here. The star is where a group is joined. Biotin = O=C1N[C@H]2[C@H](CS[C@H]2CCCCC(=O)*)N1
Molecular target: T1, CD206 on CD206-positive M2 macrophages (mouse) (mouse, UniProt Q61830 20-1456)
T1 construct: whole, on cells; No purified CD206 was used; also called CD206 receptor; CD206+ RAW264.7 cells
T1 sequence (looked up): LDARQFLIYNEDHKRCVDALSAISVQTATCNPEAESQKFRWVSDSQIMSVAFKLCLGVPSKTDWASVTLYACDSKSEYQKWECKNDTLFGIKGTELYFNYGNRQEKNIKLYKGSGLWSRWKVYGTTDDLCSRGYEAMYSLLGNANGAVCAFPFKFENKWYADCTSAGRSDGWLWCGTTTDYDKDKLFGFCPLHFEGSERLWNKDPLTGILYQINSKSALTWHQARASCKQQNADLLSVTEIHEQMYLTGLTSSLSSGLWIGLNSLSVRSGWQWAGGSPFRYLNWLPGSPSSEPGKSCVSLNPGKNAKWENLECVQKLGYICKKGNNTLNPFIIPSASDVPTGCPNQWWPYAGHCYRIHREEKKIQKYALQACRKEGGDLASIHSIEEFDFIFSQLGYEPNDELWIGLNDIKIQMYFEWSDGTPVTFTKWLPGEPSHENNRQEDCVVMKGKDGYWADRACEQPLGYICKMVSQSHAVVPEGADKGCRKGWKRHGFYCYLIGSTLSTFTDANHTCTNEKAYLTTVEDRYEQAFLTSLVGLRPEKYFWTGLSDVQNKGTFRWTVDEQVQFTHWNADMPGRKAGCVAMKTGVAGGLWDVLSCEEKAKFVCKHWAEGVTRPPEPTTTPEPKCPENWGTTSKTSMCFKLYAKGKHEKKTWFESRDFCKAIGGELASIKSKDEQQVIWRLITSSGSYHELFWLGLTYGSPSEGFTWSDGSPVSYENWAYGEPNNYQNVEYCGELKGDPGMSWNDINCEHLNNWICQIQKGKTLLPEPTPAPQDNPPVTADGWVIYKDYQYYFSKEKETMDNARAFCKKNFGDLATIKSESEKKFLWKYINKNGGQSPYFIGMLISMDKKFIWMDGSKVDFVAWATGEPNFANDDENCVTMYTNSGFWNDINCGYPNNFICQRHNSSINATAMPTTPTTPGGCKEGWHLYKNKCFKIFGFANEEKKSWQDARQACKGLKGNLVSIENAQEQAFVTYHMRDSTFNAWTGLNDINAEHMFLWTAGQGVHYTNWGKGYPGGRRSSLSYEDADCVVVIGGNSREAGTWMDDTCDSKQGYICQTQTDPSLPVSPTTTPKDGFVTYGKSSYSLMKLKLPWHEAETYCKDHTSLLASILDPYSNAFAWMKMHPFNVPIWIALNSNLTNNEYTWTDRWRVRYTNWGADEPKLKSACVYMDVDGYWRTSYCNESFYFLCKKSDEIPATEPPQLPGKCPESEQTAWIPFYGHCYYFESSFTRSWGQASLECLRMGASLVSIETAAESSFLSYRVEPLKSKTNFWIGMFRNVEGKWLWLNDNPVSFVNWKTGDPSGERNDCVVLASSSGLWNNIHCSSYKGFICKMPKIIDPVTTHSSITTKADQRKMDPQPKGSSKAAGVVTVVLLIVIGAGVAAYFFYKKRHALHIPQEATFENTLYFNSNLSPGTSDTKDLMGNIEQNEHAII
Assay: immunofluorescence of tumor, spleen and lung sections of 4T1 tumor-bearing mice after i.v. injection

B1: Biotinylated precision peptide (Biotin-CSPGAKVRC), rhodamine-labeled (peptide)
peptide: Biotin-CSPGAKVRC
modifications: cysteine pairing not given here; also: complex with rhodamine-tagged streptavidin
notes: Synthetic peptide (GeneScript); injected i.v. as a complex with rhodamine-streptavidin; also called Rhodamine red-labeled targeting peptide; rhodamine-labeled precision peptide
binding result: binds

— patent US20240075161A1 (AUGUSTA UNIVERSITY RESEARCH INSTITUTE, published 2024)
